According to patent US20040096894A1 (published 2004):
Square brackets hold non-standard residues; d marks the D form. Ends that are not written are not given here. sY = N[C@@H](Cc1ccc(OS(=O)(=O)O)cc1)C(=O)O; pGlu = O=C1CC[C@@H](C(=O)O)N1

T1: PSGL-1 19ek peptide sulfopeptide-1 (SP-1) (human, UniProt Q14242 42-60, tyrosine sulfated; no carbohydrate; biotinylated at Lys residues)
T1 construct: domain: N-terminal 19 amino acids of PSGL-1; Form of SGP-3 containing no carbohydrate
T1 sequence (Q14242 42-60, looked up): QATEYEYLDYDFLPETEPP

T2: PSGL-1 19ek peptide SGP-2 (disulfated form of SGP-3) (human, UniProt Q14242 42-60, two tyrosine sulfates (positions not resolved; every permutation present); SLe^X-containing core2 O-glycan at Thr-16; biotinylated at Lys residues)
T2 construct: domain: N-terminal 19 amino acids of PSGL-1; Same polypeptide as SGP-3, less modified; also called disulfated species
T2 sequence (Q14242 42-60, looked up): QATEYEYLDYDFLPETEPP

T3: PSGL-1 19ek peptide glycopeptide-1 (GP-1) (human, UniProt Q14242 42-60, no tyrosine sulfates; SLe^X-containing core2 O-glycan at Thr-16; biotinylated at Lys residues)
T3 construct: domain: N-terminal 19 amino acids of PSGL-1; Form of SGP-3 containing no tyrosine sulfates
T3 sequence (Q14242 42-60, looked up): QATEYEYLDYDFLPETEPP

T4: PSGL-1 19ek peptide SGP-1 (monosulfated form of SGP-3) (human, UniProt Q14242 42-60, one tyrosine sulfate (position not resolved; every permutation present); SLe^X-containing core2 O-glycan at Thr-16; biotinylated at Lys residues)
T4 construct: domain: N-terminal 19 amino acids of PSGL-1; Same polypeptide as SGP-3, less modified; also called monosulfated species
T4 sequence (Q14242 42-60, looked up): QATEYEYLDYDFLPETEPP

B1: P-selectin lectin and EGF-like (LE) domains, monomeric (receptor, human, UniProt P16109 42-198, looked up)
chain: WTYHYSTKAYSWNISRKYCQNRYTDLVAIQNKNEIDYLNKVLPYYSSYYWIGIRKNNKTWTWVGTKKALTNEAENWADNEPNNKRNNEDCVEIYIKSPSAPGKWNDEHCLKKKHALCYTASCQDMSCSKQGECLETIGNYTCSCYPGFYGPECEYVR
modifications: three N-linked glycans when expressed in CHO cells; glycosylated form used for BIAcore, N-glycanase-deglycosylated form used for crystals
notes: domain: lectin and EGF-like (LE) domains; also called P-LE; P-selectin lectin/EGF domains

Experiments:
[1] = biological target: B1; test: BIAcore SPR, equilibrium; solution-phase P-LE over immobilized biotinylated SGP-3, 25 °C
Method: (§1) Second row, left-to-right: SGP-1 (FIGS. 1C-4), GP-1 (FIGS. 1C-5) and SP-1 (FIGS. 1C-6). […] KDs and standard deviations (shown) were determined by line-fitting of specific binding curves using BIAevaluation software (BIAcore) and are the products of three-to-ten separate experiments.
(§2) Surface plasmon resonance was performed on BIAcore 2000 and 3000 instruments at 25° C. using streptavidin-coated sensor chips (BIAcore) and HBS-P buffer (BIAcore; 10 mM HEPES (pH 7.4), 150 mM NaCl, and 0.005% polysorbate 20 (v/v)) adjusted to 1 mM each CaCl₂ and MgCl₂. The 19ek peptides and sPSGL, a fucosyltransferase-VII modified version of the entire dimeric extracellular domain of PSGL-1 (Croce et al., 1998), were biotinylated at Lys residues with Sulfo-NHS-LC-Biotin (Pierce). Following biotinylation, sPSGL was reacted with immobilized P-selectin in order to isolate functional material (Sako et al., 1995). […] Biotinylated reagents were coated onto sensor chips using HBS-P buffer.

[2] = biological target: T1, PSGL-1 19ek peptide sulfopeptide-1 …; test: BIAcore SPR, equilibrium; solution-phase P-LE over immobilized biotinylated SP-1
Method: as §1, §2

[3] = biological target: T2, PSGL-1 19ek peptide SGP-2 (disulfated …); test: BIAcore SPR, equilibrium; solution-phase P-LE over immobilized biotinylated SGP-2
Method: as §1, §2

[4] = biological target: T3, PSGL-1 19ek peptide glycopeptide-1 …; test: BIAcore SPR, equilibrium; solution-phase P-LE over immobilized biotinylated GP-1
Method: as §1, §2

[5] = biological target: T4, PSGL-1 19ek peptide SGP-1 (monosulfated …); test: BIAcore SPR, equilibrium; solution-phase P-LE over immobilized biotinylated SGP-1
Method: as §1, §2

Binder	Kd [1] [µM]	Kd [2] [µM]	Kd [3] [µM]	Kd [4] [µM]	Kd [5] [µM]
[pGlu]ATE[sY]E[sY]LD[sY]DFLPET(SLeX core2 O‑glycan)EPP (also: biotinylated at Lys residues when immobilized, site not placed) [PSGL-1 19ek peptide sulfoglycopeptide-3 (SGP-3)]	0.778				
B1		~113	2.88	~31.1	12.3
